Measured values as given in PMC8289069, “Functional requirement of terminal inverted repeats for efficient ProtoRAG activity reveals the early evolution of V(D)J recombination”.

Biological target: T1, mRAG1F (mouse, UniProt P15919 389-456)
T1 sequence: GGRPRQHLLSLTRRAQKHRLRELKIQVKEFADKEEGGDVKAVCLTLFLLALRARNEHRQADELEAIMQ
Assay: DNA-binding assay (type not stated); EMSA: 25 mM MOPS pH 7.0, 50 mM KCl, 2 mM DTT, 1.5 mM CaCl2, 2.5% glycerol, 50 nM HMGB1, 100 nM ss nonspecific oligo, ~50 nM each RAG, 25 C 20 min; pull-down: 50 mM Tris pH 7.5, 150 mM NaCl, 0.5% NP40, 5% glycerol, 1.5 mM CaCl2, 4 C
Settings: protein: recombinant; chain copies: 2; label: 5' biotin on strand 1; blunt

B1: 12RSS (dsDNA)
DNA 1: GATCTGGCCTGTCTTACACAGTGATACAGACCTTAACAAAAACCCTGCAG
DNA 2: CTGCAGGGTTTTTGTTAAGGTCTGTATCACTGTGTAAGACAGGCCAGATC
B1: binds.
